From publication PMC2962499 (The Journal of Biological Chemistry, 2010)

T1: SpRpn12 fragment (residues 1-250) (Schizosaccharomyces pombe, UniProt P50524 1-250)
T1 sequence (looked up): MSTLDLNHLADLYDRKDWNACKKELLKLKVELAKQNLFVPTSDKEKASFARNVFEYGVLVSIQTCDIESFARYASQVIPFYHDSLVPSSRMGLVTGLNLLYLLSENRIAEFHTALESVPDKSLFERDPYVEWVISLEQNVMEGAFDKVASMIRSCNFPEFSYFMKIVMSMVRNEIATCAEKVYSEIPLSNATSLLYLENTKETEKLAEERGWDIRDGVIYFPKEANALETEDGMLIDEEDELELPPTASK


Columns and labels:
[1] = target: T1, SpRpn12 fragment (residues 1-250); experiment: NMR titration
monoubiquitin (bovine) = monoubiquitin (bovine) (bovine, UniProt P0CG53 1-76); experiment: ITC

binding result [1] | Kd (monoubiquitin (bovine)) [µM] | Binder
binds | – | SpRpn10 VWA domain (residues 1-195) (domain or fragment, Schizosaccharomyces pombe, UniProt O94444 1-195, looked up) MVLEATMILIDNSEWMINGDYIPTRFEAQKDTVHMIFNQKINDNPENMCGLMTIGDNSPQVLSTLTRDYGKFLSAMHDLPVRGNAKFGDGIQIAQLALKHRENKIQRQRIVAFVGSPIVEDEKNLIRLAKRMKKNNVAIDIIHIGELQNESALQHFIDAANSSDSCHLVSIPPSPQLLSDLVNQSPIGQGVVASQ
– | 139 | Schizosaccharomyces pombe Rpn10, full-length (residues 1-243) (natural protein) MVLEATMILIDNSEWMINGDYIPTRFEAQKDTVHMIFNQKINDNPENMCGLMTIGDNSPQVLSTLTRDYGKFLSAMHDLPVRGNAKFGDGIQIAQLALKHRENKIQRQRIVAFVGSPIVEDEKNLIRLAKRMKKNNVAIDIIHIGELQNESALQHFIDAANSSDSCHLVSIPPSPQLLSDLVNQSPIGQGVVASQNQFEYGVDPNLDVELALALELSMAEERARQEVAAQKSSEETEDKKMQE
